Measured values published in publication PMC2715080 (The Journal of Experimental Medicine, 2009).
Read-outs that look alike come from different tables or passages of the source.

What was measured:
[1] = target: T1, B7-H6-Fc (extracellular domain of B7-H6, aa 1-267, fused to effector-negative mouse IgG2a Fc) (human, UniProt Q68D85 25-267); assay: SPR
T1 sequence (looked up): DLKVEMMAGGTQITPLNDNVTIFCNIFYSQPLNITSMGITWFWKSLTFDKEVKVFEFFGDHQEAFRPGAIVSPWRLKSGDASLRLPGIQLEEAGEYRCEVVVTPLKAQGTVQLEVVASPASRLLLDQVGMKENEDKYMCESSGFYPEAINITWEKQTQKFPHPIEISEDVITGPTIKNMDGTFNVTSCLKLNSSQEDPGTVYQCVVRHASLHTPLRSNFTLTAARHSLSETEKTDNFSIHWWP

[2] = target: T1, B7-H6-Fc (extracellular domain of …); assay: SPR; remark: listed apart in the source

B1: NKp30-hFc (soluble recombinant NKp30 fused to mutated human IgG1) (Fc fusion, UniProt O14931 19-135, looked up)
chain: LWVSQPPEIRTLEGSSAFLPCSFNASQGRLAIGSVTWFRDEVVPGKEVRNGTPEFRGRLAPLASSRFLHDHQAELHIRDVRGHDASIYVCRVEVLGLGVGTGNGTRLVVEKEHPQLG
Does B1 bind [1]?
Result: binds

Does B1 bind [2]?
Result: binds
